Results as given in paper PMC3258524, “Regulation of the human tyrosinase gene in retinal pigment epithelium cells: the significance of transcription factor orthodenticle homeobox 2 and its polymorphic binding site” (Molecular Vision, 2012).

Tests used:
[1] = target: T1, full-length MITF-A (microphthalmia-associated transcription factor, isoform A) (UniProt O75030-2 1-520); assay: cell-based or functional assay
T1 sequence (looked up): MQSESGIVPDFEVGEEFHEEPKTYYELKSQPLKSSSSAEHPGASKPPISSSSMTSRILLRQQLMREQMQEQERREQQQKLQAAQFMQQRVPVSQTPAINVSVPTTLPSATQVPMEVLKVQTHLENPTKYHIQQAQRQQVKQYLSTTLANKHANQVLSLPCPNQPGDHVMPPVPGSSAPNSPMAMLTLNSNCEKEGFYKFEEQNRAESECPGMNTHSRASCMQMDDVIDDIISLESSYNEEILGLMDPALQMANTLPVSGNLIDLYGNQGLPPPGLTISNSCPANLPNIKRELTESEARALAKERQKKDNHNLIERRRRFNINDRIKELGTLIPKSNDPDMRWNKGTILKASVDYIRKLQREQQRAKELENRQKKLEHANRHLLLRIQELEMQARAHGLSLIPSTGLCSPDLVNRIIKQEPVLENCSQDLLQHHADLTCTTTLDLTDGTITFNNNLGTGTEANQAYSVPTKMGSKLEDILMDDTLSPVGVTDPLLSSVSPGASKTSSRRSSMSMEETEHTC

[2] = target: T2, full-length MITF-M (microphthalmia-associated transcription factor, isoform M) (UniProt O75030-9 1-419); assay: cell-based or functional assay
T2 sequence (looked up): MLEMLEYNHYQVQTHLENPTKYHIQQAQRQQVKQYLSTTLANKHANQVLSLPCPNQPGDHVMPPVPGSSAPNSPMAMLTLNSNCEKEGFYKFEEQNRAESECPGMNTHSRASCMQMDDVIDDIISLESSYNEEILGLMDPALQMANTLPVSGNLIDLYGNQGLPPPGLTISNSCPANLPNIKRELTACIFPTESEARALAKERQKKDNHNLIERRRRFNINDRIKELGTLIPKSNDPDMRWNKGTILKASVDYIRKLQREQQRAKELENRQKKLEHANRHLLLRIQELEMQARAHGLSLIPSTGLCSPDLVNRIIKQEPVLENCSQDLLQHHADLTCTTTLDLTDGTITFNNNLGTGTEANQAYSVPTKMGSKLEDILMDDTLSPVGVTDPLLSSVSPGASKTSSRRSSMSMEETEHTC

luciferase reporter driven by the human TYR promoter construct -152 (MITF sites, no OTX2 sites) in ARPE-19 cells cotransfected with MITF-A and OTX2; activation relative to the empty vector [1]: 20 fold
luciferase reporter driven by the human TYR promoter construct -152 (MITF sites, no OTX2 sites) in ARPE-19 cells cotransfected with MITF-M and OTX2; synergism compared with that of MITF-A and OTX2 [2]: ~1.7 fold (against MITF-A)
B1: full-length OTX2 (orthodenticle homeobox 2) (natural protein)
chain: not shown
